B1: GLS3000 G89Y (antibody, name in Kabat numbering, V domains shown)
VH: QVQLVESGGGVVQPGRSLRLSCAASGFTFSNAWMHWVRQAPGKGLEWVAQIKAKSNNYATYYAESVKGRFTISRDDSKNSLYLQMNSLKTEDTAVYYCRYVHYGAYYGVDAWGQGTTVTVSS
VL: DIVMTQSPLSLPVTPGEPASISCRSSQSLVHSNRNTYLHWYQQKPGQAPRLLIYKVSNRFSGVPDRFSGSGSGTDFTLKISRVEAEDVGVYYCYQGTQVPYTFGQGTKLEIK
notes: one-arm IgG as m2
B2: GLS3000 G91S (antibody, name in Kabat numbering, V domains shown)
VH: B1 VH
VL: B1 VL with Y94G, G96S
notes: one-arm IgG as m2
B3: GLS3000 H27dF (antibody, name in Kabat numbering, V domains shown)
VH: B1 VH
VL: B1 VL with H31F, Y94G
notes: one-arm IgG as m2
B4: GLS3000 G91T (antibody, name in Kabat numbering, V domains shown)
VH: B1 VH
VL: B1 VL with Y94G, G96T
notes: one-arm IgG as m2
B5: GLS3000 G91P (antibody, name in Kabat numbering, V domains shown)
VH: B1 VH
VL: B1 VL with Y94G, G96P
notes: one-arm IgG as m2
B6: GLS3000 H34R (antibody, name in Kabat numbering, V domains shown)
VH: B1 VH
VL: B1 VL with H39R, Y94G
notes: one-arm IgG as m2
B7: GLS3000 H27dD (antibody, name in Kabat numbering, V domains shown)
VH: B1 VH
VL: B1 VL with H31D, Y94G
notes: one-arm IgG as m2
B8: GLS3000 H34V (antibody, name in Kabat numbering, V domains shown)
VH: B1 VH
VL: B1 VL with H39V, Y94G
notes: one-arm IgG as m2
B9: GLS3000 H27dE (antibody, name in Kabat numbering, V domains shown)
VH: B1 VH
VL: B1 VL with H31E, Y94G
notes: one-arm IgG as m2
B10: GLS3000 H27dN (antibody, name in Kabat numbering, V domains shown)
VH: B1 VH
VL: B1 VL with H31N, Y94G
notes: one-arm IgG as m2
B11: GLS3000 H27dR (antibody, name in Kabat numbering, V domains shown)
VH: B1 VH
VL: B1 VL with H31R, Y94G
notes: one-arm IgG as m2
B12: GLS3000 H27dP (antibody, name in Kabat numbering, V domains shown)
VH: B1 VH
VL: B1 VL with H31P, Y94G
notes: one-arm IgG as m2
B13: GLS3000 H34D (antibody, name in Kabat numbering, V domains shown)
VH: B1 VH
VL: B1 VL with H39D, Y94G
notes: one-arm IgG as m2
B14: GLS3000 G91A (antibody, name in Kabat numbering, V domains shown)
VH: B1 VH
VL: B1 VL with Y94G, G96A
notes: one-arm IgG as m2
B15: GLS3000 H34M (antibody, name in Kabat numbering, V domains shown)
VH: B1 VH
VL: B1 VL with H39M, Y94G
notes: one-arm IgG as m2
B16: GLS3000 H27dY (antibody, name in Kabat numbering, V domains shown)
VH: B1 VH
VL: B1 VL with H31Y, Y94G
notes: one-arm IgG as m2
B17: GLS3000 H34L (antibody, name in Kabat numbering, V domains shown)
VH: B1 VH
VL: B1 VL with H39L, Y94G
notes: one-arm IgG as m2
B18: GLS3000 H34T (antibody, name in Kabat numbering, V domains shown)
VH: B1 VH
VL: B1 VL with H39T, Y94G
notes: one-arm IgG as m2
B19: GLS3000 H27dS (antibody, name in Kabat numbering, V domains shown)
VH: B1 VH
VL: B1 VL with H31S, Y94G
notes: one-arm IgG as m2
B20: GLS3000 G91Y (antibody, name in Kabat numbering, V domains shown)
VH: B1 VH
VL: B1 VL with Y94G, G96Y
notes: one-arm IgG as m2
B21: GLS3000 H34E (antibody, name in Kabat numbering, V domains shown)
VH: B1 VH
VL: B1 VL with H39E, Y94G
notes: one-arm IgG as m2
B22: GLS3000 H34G (antibody, name in Kabat numbering, V domains shown)
VH: B1 VH
VL: B1 VL with H39G, Y94G
notes: one-arm IgG as m2
B23: GLS3000 H27dT (antibody, name in Kabat numbering, V domains shown)
VH: B1 VH
VL: B1 VL with H31T, Y94G
notes: one-arm IgG as m2
B24: GLS3000 H34S (antibody, name in Kabat numbering, V domains shown)
VH: B1 VH
VL: B1 VL with H39S, Y94G
notes: one-arm IgG as m2
B25: GLS3000 H34N (antibody, name in Kabat numbering, V domains shown)
VH: B1 VH
VL: B1 VL with H39N, Y94G
notes: one-arm IgG as m2
B26: GLS3000 H27dK (antibody, name in Kabat numbering, V domains shown)
VH: B1 VH
VL: B1 VL with H31K, Y94G
notes: one-arm IgG as m2
B27: GLS3000 G91D (antibody, name in Kabat numbering, V domains shown)
VH: B1 VH
VL: B1 VL with Y94G, G96D
notes: one-arm IgG as m2
B28: GLS3000 H34A (antibody, name in Kabat numbering, V domains shown)
VH: B1 VH
VL: B1 VL with H39A, Y94G
notes: one-arm IgG as m2
B29: GLS3000 H34W (antibody, name in Kabat numbering, V domains shown)
VH: B1 VH
VL: B1 VL with H39W, Y94G
notes: one-arm IgG as m2
B30: GLS3000 H34K (antibody, name in Kabat numbering, V domains shown)
VH: B1 VH
VL: B1 VL with H39K, Y94G
notes: one-arm IgG as m2
B31: GLS3000 H34Q (antibody, name in Kabat numbering, V domains shown)
VH: B1 VH
VL: B1 VL with H39Q, Y94G
notes: one-arm IgG as m2
B32: GLS3000 H34P (antibody, name in Kabat numbering, V domains shown)
VH: B1 VH
VL: B1 VL with H39P, Y94G
notes: one-arm IgG as m2
B33: GLS3000 H27dV (antibody, name in Kabat numbering, V domains shown)
VH: B1 VH
VL: B1 VL with H31V, Y94G
notes: one-arm IgG as m2
B34: GLS3000 H27dL (antibody, name in Kabat numbering, V domains shown)
VH: B1 VH
VL: B1 VL with H31L, Y94G
notes: one-arm IgG as m2
B35: GLS3000 H34Y (antibody, name in Kabat numbering, V domains shown)
VH: B1 VH
VL: B1 VL with H39Y, Y94G
notes: one-arm IgG as m2
B36: GLS3000 H27dW (antibody, name in Kabat numbering, V domains shown)
VH: B1 VH
VL: B1 VL with H31W, Y94G
notes: one-arm IgG as m2
B37: GLS3000 H34I (antibody, name in Kabat numbering, V domains shown)
VH: B1 VH
VL: B1 VL with H39I, Y94G
notes: one-arm IgG as m2
B38: GLS3000 H27dQ (antibody, name in Kabat numbering, V domains shown)
VH: B1 VH
VL: B1 VL with H31Q, Y94G
notes: one-arm IgG as m2
B39: GLS3000 H27dI (antibody, name in Kabat numbering, V domains shown)
VH: B1 VH
VL: B1 VL with H31I, Y94G
notes: one-arm IgG as m2
B40: GLS3000 G91E (antibody, name in Kabat numbering, V domains shown)
VH: B1 VH
VL: B1 VL with Y94G, G96E
notes: one-arm IgG as m2
B41: GLS3000 H34F (antibody, name in Kabat numbering, V domains shown)
VH: B1 VH
VL: B1 VL with H39F, Y94G
notes: one-arm IgG as m2
B42: GLS3000 H27dM (antibody, name in Kabat numbering, V domains shown)
VH: B1 VH
VL: B1 VL with H31M, Y94G
notes: one-arm IgG as m2
B43: GLS3000 H27dG (antibody, name in Kabat numbering, V domains shown)
VH: B1 VH
VL: B1 VL with H31G, Y94G
notes: one-arm IgG as m2

Where a chain is given by its changes, count along the chain named.

In this test the target is T1, CD3 epsilon homodimer protein (UniProt P07766 23-126).
T1 construct: also called CD3 (CD3 epsilon)
T1 sequence (P07766 23-126): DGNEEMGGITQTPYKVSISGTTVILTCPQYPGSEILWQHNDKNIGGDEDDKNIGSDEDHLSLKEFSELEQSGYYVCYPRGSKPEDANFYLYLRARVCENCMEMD
The test can be described thus: SPR Biacore T200, CD3e homodimer on chip, vs unaltered GLS3000 antibody.
For B1, the “ratio of amounts bound (Z=Y/X)” value was 1.19.

As for B2, the “ratio of amounts bound (Z=Y/X)” value is 0.26.

Consider B3, for which the “ratio of amounts bound (Z=Y/X)” value was 0.63.

Regarding B4, the “ratio of amounts bound (Z=Y/X)” value was 0.26.

For B5, the “ratio of amounts bound (Z=Y/X)” value worked out at 0.27.

For the molecule B6, the “ratio of amounts bound (Z=Y/X)” value was 0.2.

B7: the “ratio of amounts bound (Z=Y/X)” value came to 0.22.

B8: the “ratio of amounts bound (Z=Y/X)” value is 0.85.

As for B9, the “ratio of amounts bound (Z=Y/X)” value was 0.23.

On to B10, for which the “ratio of amounts bound (Z=Y/X)” value worked out at 0.3.

For B11, the “ratio of amounts bound (Z=Y/X)” value worked out at 0.31.

B12: the “ratio of amounts bound (Z=Y/X)” value is 0.24.

B13: the “ratio of amounts bound (Z=Y/X)” value was found to be 0.22.

On to B14, for which the “ratio of amounts bound (Z=Y/X)” value was found to be 0.27.

Regarding B15, the “ratio of amounts bound (Z=Y/X)” value worked out at 0.35.

With B16, the “ratio of amounts bound (Z=Y/X)” value stood at 0.64.

B17: the “ratio of amounts bound (Z=Y/X)” value was 0.59.

For the molecule B18, the “ratio of amounts bound (Z=Y/X)” value came to 0.89.

Turning to B19, the “ratio of amounts bound (Z=Y/X)” value is 0.32.

As to B20, the “ratio of amounts bound (Z=Y/X)” value came to 0.17.

B21: the “ratio of amounts bound (Z=Y/X)” value was determined as 0.23.

For B22, the “ratio of amounts bound (Z=Y/X)” value turned out to be 1.02.

B23: the “ratio of amounts bound (Z=Y/X)” value was 0.29.

In the case of B24, the “ratio of amounts bound (Z=Y/X)” value came to 0.78.

Regarding B25, the “ratio of amounts bound (Z=Y/X)” value was found to be 0.65.

With B26, the “ratio of amounts bound (Z=Y/X)” value is 0.29.

With B27, the “ratio of amounts bound (Z=Y/X)” value worked out at 0.16.

In the case of B28, the “ratio of amounts bound (Z=Y/X)” value is 1.06.

Turning to B29, the “ratio of amounts bound (Z=Y/X)” value was 0.24.

Take B30: the “ratio of amounts bound (Z=Y/X)” value turned out to be 2.17.

With B31, the “ratio of amounts bound (Z=Y/X)” value was found to be 0.25.

Consider B32, for which the “ratio of amounts bound (Z=Y/X)” value amounted to 0.34.

In the case of B33, the “ratio of amounts bound (Z=Y/X)” value worked out at 0.3.

As to B34, the “ratio of amounts bound (Z=Y/X)” value turned out to be 0.3.

Turning to B35, the “ratio of amounts bound (Z=Y/X)” value was 0.59.

Regarding B36, the “ratio of amounts bound (Z=Y/X)” value is 0.39.

As for B37, the “ratio of amounts bound (Z=Y/X)” value was determined as 0.65.

Consider B38, for which the “ratio of amounts bound (Z=Y/X)” value is 0.25.

On to B39, for which the “ratio of amounts bound (Z=Y/X)” value was 0.26.

B40: the “ratio of amounts bound (Z=Y/X)” value worked out at 0.16.

In the case of B41, the “ratio of amounts bound (Z=Y/X)” value came to 0.27.

Take B42: the “ratio of amounts bound (Z=Y/X)” value turned out to be 0.3.

Consider B43, for which the “ratio of amounts bound (Z=Y/X)” value was found to be 0.3.

Values taken from patent US20210388087A1 (Chugai, published 2021).
